From paper PMC12148588 (eBioMedicine, 2025)

Target: T1, SARS-CoV-2 RBD of the VOC Delta (Acro Biosystems SPD-C82Ed-25) (SARS-CoV-2, VOC Delta (B.1.617.2), strain)
T1 construct: source: bought: Acro Biosystems
Assay: SPR; Biacore 8K+, […]; 10 mM HEPES pH 7.4, 150 mM NaCl, 3 mM EDTA, 0.05% Tween 20; […]
Conditions: both partners purified

B1: MB025_A09Lgl (antibody, V domains shown)
VH: EVQLVESGGGLVQPGGSLRLSCAASGFTVSSNYMSWVRQAPGKGLEWVSVIYSGGSTYYADSVKGRFTISRHNSKNTLYLQMNSLRAEDTAVYYCARGVDYRTNRTEGGAFDIWGQGTMVTVSS
VL: QSALTQPASVSGSPGQSITISCTGTSSDVGSYNLVSWYQQHPGKAPKLMIYEGSKRPSGVSNRFSGSKSGNTASLTISGLQAEDEADYYCCSYAGSSTWMFGGGTKLTVL
Kd: 731 nM
